Test results from patent US20210395390A1 (Bayer, published 2021).
Residue numbers refer to the chain shown, from its start.

Target: anti-FXIa antibody 076D-M007-H04-CDRL3-N110D
Assay: cell-based or functional assay

B1: TPP-9251 (antibody, human IgG1, lambda, V domains shown)
VH: EVQLLESGGGLVQPGGSLRLSCAASGFTFSNYGIHWVRQAPGKGLEWVSAIGTGGDTYYADSVTGRFTISRDNSKNTLYLQMNSLRAEDTAVYYCARDRGYYDILTGLYDYWGQGTLVTVSS
VL: QSVLTQPPSASGTPGQRVTISCSGSSSNIGNNYVNWYQQLPGTAPKLLIYGNYHRPSGVPDRFSGSKSGTSASLAITGLQAEDEADYYCSSYAGSNNWVFGGGTKLTVLG
Question: For B1, which “aPTT 1.5 X” value is on record?
Answer: 0.06 µM

Question: What about the “biochemical FXIa assay IC 50” value of the same binder?
Answer: 0.2 nM

Question: What about the “plasma based assay IC 50” value of the same binder?
Answer: 6 nM

B2: TPP-9258 (antibody, human IgG1, lambda, V domains shown)
VH: B1 VH with N31S, I34M, T64Q
VL: B1 VL
Question: How did the “aPTT 1.5 X” value turn out when B2 was run?
Answer: 0.1 µM

Question: What about the “biochemical FXIa assay IC 50” value of the same binder?
Answer: 0.5 nM

Question: And the “plasma based assay IC 50” value?
Answer: 7 nM

B3: TPP-9238 (antibody, human IgG1, lambda, V domains shown)
VH: B1 VH with T64M
VL: B1 VL
Question: B3 was tested. Which “aPTT 1.5 X” value did it give?
Answer: 0.1 µM

Question: What about the “biochemical FXIa assay IC 50” value of the same binder?
Answer: 0.5 nM

Question: What about the “plasma based assay IC 50” value of the same binder?
Answer: 10 nM
